Here are results for 5 molecules from paper PMC4627070.

The data set addresses T1, gp32 (gene 32 protein, ssDNA-binding protein) (bacteriophage T4, UniProt P03695 1-301).
T1 sequence: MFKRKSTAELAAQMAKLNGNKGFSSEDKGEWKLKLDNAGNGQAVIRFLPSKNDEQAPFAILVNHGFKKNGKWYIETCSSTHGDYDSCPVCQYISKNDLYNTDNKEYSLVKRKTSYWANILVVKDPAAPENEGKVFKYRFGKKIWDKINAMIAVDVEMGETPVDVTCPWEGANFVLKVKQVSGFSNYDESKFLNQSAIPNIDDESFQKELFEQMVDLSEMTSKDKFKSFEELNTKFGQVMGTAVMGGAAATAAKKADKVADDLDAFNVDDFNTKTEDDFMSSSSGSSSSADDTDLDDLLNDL
The data set is described as follows: fluorescence titration.

The Kd is the constant that tells how readily two partners part at equilibrium. Read a low Kd as a tighter complex. As for AAAAAAAA (ssDNA, 2-aminopurine at positions 2,3 (written as A)) [8A2,3], binding was put at a Kd of 4.1 ± 0.4 µM.
The result for TAATTTTT (ssDNA, 2-aminopurine at positions 2,3 (written as A)) [8P2,3] reads 3.5 ± 0.4 µM.
In the case of AAAAAAAA (ssDNA, 2-aminopurine at positions 6,7 (written as A)) [8A6,7], the affinity, expressed as Kd, was 3.2 ± 0.3 µM.
TTTTTAAT (ssDNA, 2-aminopurine at positions 6,7 (written as A)) [8P6,7] showed a Kd of 10.3 ± 1 µM. Compared with the last molecule, the Kd is about 3.2-fold higher.
The result for TTTAATTT (ssDNA, 2-aminopurine at positions 4,5 (written as A)) [8P4,5] reads 4.2 ± 0.4 µM.
